Measured values taken from patent US20090239794A1, “HCV F PROTEIN AND USES THEREOF” (priority 2004, published 2009).

What was measured:
[1] = target: Fmut8Δ11 protein (recombinant ARFP, truncated HCV-1a F protein lacking the first 11 N-terminal amino acids) (HCV-1a) (UniProt P0C045); test: ELISA, serum 1/50, day 52
[2] = target: Fmut8Δ11 protein (recombinant ARFP, truncated HCV-1a F protein lacking the first 11 N-terminal amino acids) (HCV-1a) (UniProt P0C045); test: ELISA, serum 1/100, day 52
[3] = target: Fmut8Δ11 protein (recombinant ARFP, truncated HCV-1a F protein lacking the first 11 N-terminal amino acids) (HCV-1a) (UniProt P0C045); test: ELISA, serum 1/800, day 14
[4] = target: Fmut8Δ11 protein (recombinant ARFP, truncated HCV-1a F protein lacking the first 11 N-terminal amino acids) (HCV-1a) (UniProt P0C045); test: ELISA, serum 1/50, day 29
[5] = target: Fmut8Δ11 protein (recombinant ARFP, truncated HCV-1a F protein lacking the first 11 N-terminal amino acids) (HCV-1a) (UniProt P0C045); test: ELISA, serum 1/1600, day 29
[6] = target: Fmut8Δ11 protein (recombinant ARFP, truncated HCV-1a F protein lacking the first 11 N-terminal amino acids) (HCV-1a) (UniProt P0C045); test: ELISA, serum 1/800, day 29
[7] = target: Fmut8Δ11 protein (recombinant ARFP, truncated HCV-1a F protein lacking the first 11 N-terminal amino acids) (HCV-1a) (UniProt P0C045); test: ELISA, serum 1/800, day 52
[8] = target: Fmut8Δ11 protein (recombinant ARFP, truncated HCV-1a F protein lacking the first 11 N-terminal amino acids) (HCV-1a) (UniProt P0C045); test: ELISA, serum 1/200, day 14
[9] = target: Fmut8Δ11 protein (recombinant ARFP, truncated HCV-1a F protein lacking the first 11 N-terminal amino acids) (HCV-1a) (UniProt P0C045); test: ELISA, serum 1/400, day 14
[10] = target: Fmut8Δ11 protein (recombinant ARFP, truncated HCV-1a F protein lacking the first 11 N-terminal amino acids) (HCV-1a) (UniProt P0C045); test: ELISA, serum 1/400, day 29
[11] = target: Fmut8Δ11 protein (recombinant ARFP, truncated HCV-1a F protein lacking the first 11 N-terminal amino acids) (HCV-1a) (UniProt P0C045); test: ELISA, serum 1/50, day 14
[12] = target: Fmut8Δ11 protein (recombinant ARFP, truncated HCV-1a F protein lacking the first 11 N-terminal amino acids) (HCV-1a) (UniProt P0C045); test: ELISA, serum 1/100, day 29
[13] = target: Fmut8Δ11 protein (recombinant ARFP, truncated HCV-1a F protein lacking the first 11 N-terminal amino acids) (HCV-1a) (UniProt P0C045); test: ELISA, serum 1/400, day 52
[14] = target: Fmut8Δ11 protein (recombinant ARFP, truncated HCV-1a F protein lacking the first 11 N-terminal amino acids) (HCV-1a) (UniProt P0C045); test: ELISA, serum 1/100, day 14
[15] = target: Fmut8Δ11 protein (recombinant ARFP, truncated HCV-1a F protein lacking the first 11 N-terminal amino acids) (HCV-1a) (UniProt P0C045); test: ELISA, serum 1/200, day 52
[16] = target: Fmut8Δ11 protein (recombinant ARFP, truncated HCV-1a F protein lacking the first 11 N-terminal amino acids) (HCV-1a) (UniProt P0C045); test: ELISA, serum 1/200, day 29
[17] = target: Fmut8Δ11 protein (recombinant ARFP, truncated HCV-1a F protein lacking the first 11 N-terminal amino acids) (HCV-1a) (UniProt P0C045); test: ELISA, serum 1/1600, day 52
[18] = target: Fmut8Δ11 protein (recombinant ARFP, truncated HCV-1a F protein lacking the first 11 N-terminal amino acids) (HCV-1a) (UniProt P0C045); test: ELISA, serum 1/1600, day 14

| Substance | OD410 [1] | OD410 [2] | OD410 [3] | OD410 [4] | OD410 [5] | OD410 [6] | OD410 [7] | OD410 [8] | OD410 [9] | OD410 [10] | OD410 [11] | OD410 [12] | OD410 [13] | OD410 [14] | OD410 [15] | OD410 [16] | OD410 [17] | OD410 [18] |
| --- | --- | --- | --- | --- | --- | --- | --- | --- | --- | --- | --- | --- | --- | --- | --- | --- | --- | --- |
| serum of mouse 12, protocol 2, mock immunization (PBS) (antibody) | 0.516 | 0.208 | 0.16 | 0.246 | 0.117 | 0.114 | 0.125 | 0.215 | 0.17 | 0.114 | 0.442 | 0.148 | 0.146 | 0.302 | 0.17 | 0.127 | 0.12 | 0.15 |
| serum of mouse 13, protocol 2, mock immunization (PBS) (antibody) | 0.474 | 0.238 | 0.169 | 0.338 | 0.13 | 0.126 | 0.123 | 0.151 | 0.143 | 0.121 | 0.288 | 0.161 | 0.133 | 0.177 | 0.172 | 0.126 | 0.113 | 0.142 |
| serum of mouse 11, protocol 2, mock immunization (PBS) (antibody) | 0.35 | 0.173 | 0.114 | 0.307 | 0.123 | 0.127 | 0.118 | 0.135 | 0.116 | 0.128 | 0.108 | 0.19 | 0.149 | 0.154 | 0.133 | 0.153 | 0.117 | 0.113 |
| serum of mouse 19, protocol 2, mock immunization (PBS) (antibody) | 0.313 | 0.175 | 0.13 | 0.444 | 0.119 | 0.139 | 0.12 | 0.144 | 0.142 | 0.54 | 0.23 | 0.27 | 0.135 | 0.18 | 0.143 | 0.184 | 0.126 | 0.129 |
| serum of mouse 30, protocol 2, mock immunization (PBS) (antibody) | 0.226 | 0.148 |  | 0.381 | 0.129 | 0.126 | 0.113 |  |  | 0.132 |  | 0.224 | 0.119 |  | 0.128 | 0.157 | 0.119 |  |
| serum of mouse 16, protocol 2, mock immunization (PBS) (antibody) | 0.231 | 0.194 | 0.13 | 0.327 | 0.116 | 0.129 | 0.107 | 0.13 | 0.121 | 0.151 | 0.249 | 0.325 | 0.134 | 0.174 | 0.149 | 0.196 | 0.123 | 0.123 |
| serum of mouse 18, protocol 2, mock immunization (PBS) (antibody) | 0.279 | 0.161 | 0.126 | 0.356 | 0.119 | 0.126 | 0.114 | 0.136 | 0.127 | 0.134 | 0.228 | 0.217 | 0.12 | 0.162 | 0.135 | 0.166 | 0.134 | 0.122 |
| serum of mouse 20, protocol 2, mock immunization (PBS) (antibody) | 0.247 | 0.182 | 0.136 | 0.51 | 0.141 | 0.13 | 0.127 | 0.138 | 0.121 | 0.133 | 0.245 | 0.181 | 0.141 | 0.168 | 0.146 | 0.154 | 0.127 | 0.118 |
| serum of mouse 17, protocol 2, mock immunization (PBS) (antibody) | 0.5 | 0.286 | 0.184 | 0.754 | 0.112 | 0.119 | 0.125 | 0.321 | 0.248 | 0.138 | 0.67 | 0.269 | 0.142 | 0.487 | 0.185 | 0.191 | 0.125 | 0.159 |
| serum of mouse 15, protocol 2, mock immunization (PBS) (antibody) | 0.376 | 0.215 | 0.118 | 0.253 | 0.122 | 0.13 | 0.134 | 0.146 | 0.144 | 0.113 | 0.229 | 0.16 | 0.177 | 0.162 | 0.151 | 0.123 | 0.136 | 0.116 |
| serum of mouse 27, protocol 2, mock immunization (PBS) (antibody) | 0.201 | 0.155 | 0.113 | 0.324 | 0.129 | 0.124 | 0.115 | 0.113 | 0.115 | 0.13 | 0.216 | 0.175 | 0.12 | 0.146 | 0.136 | 0.14 | 0.116 | 0.112 |
| serum of mouse 14, protocol 2, mock immunization (PBS) (antibody) | 0.288 | 0.224 | 0.15 | 0.246 | 0.124 | 0.123 | 0.159 | 0.178 | 0.151 | 0.126 | 0.212 | 0.156 | 0.163 | 0.171 | 0.156 | 0.143 | 0.145 | 0.143 |
| serum of mouse 26, protocol 2, mock immunization (PBS) (antibody) | 0.203 | 0.146 | 0.133 | 0.416 | 0.137 | 0.144 | 0.114 | 0.146 | 0.133 | 0.144 | 0.281 | 0.178 | 0.12 | 0.193 | 0.123 | 0.154 | 0.118 | 0.126 |
| serum of mouse 28, protocol 2, mock immunization (PBS) (antibody) | 0.165 | 0.141 | 0.122 | 0.354 | 0.128 | 0.128 | 0.107 | 0.146 | 0.133 | 0.143 | 0.261 | 0.204 | 0.119 | 0.179 | 0.117 | 0.167 | 0.123 | 0.114 |
